4 molecules from patent US20230220381 (published 2023) can be followed below.

Data set [1] has as its target T1, Thrombin (Homo sapiens, UniProt P00734;P00734 P00734:328-363,P00734:364-622). Nature of the data set: FP; 20 mM Tris, 140 mM NaCl, 20 mM KCl, 1 mM CaCl2, 1 mM MgCl2, 0.1% Triton X, room temperature.
Data set [2] addresses T1, Thrombin. Nature of the data set: FP; no binding observed with up to 2 uM thrombin.

B1: TBA1F (ssDNA)
DNA: CGTCGAGGCCCCTTCTTCTTCGTCTTCTTCTTAGGAGGTGGTGTGGTTGGTTTTACACGTCACGCCTTTTTTTTT
modifications: branched DNA-encoded construct: code strand with branching unit BU; aptamer branch …
Take B1: the affinity in data set [1], expressed as Kd, was 13 nM. This lies in the double-digit nanomolar range.

GGTTGGTGTGGTTGG (ssDNA) [PC (positive control TBA 15mer)] yielded an equilibrium dissociation constant (Kd) in data set [1] of 10 nM.

B2: NCL (ssDNA)
DNA: CGTCGAGGCCCCTTCTTCTTCGTCTTCTTCTTAGGATACACGTCACGCCTTTTTTTTT
As for B2, the binding result in data set [2] is “no binding”.

Consider GGTTGGTGTTGTTTG (ssDNA) [NCS], for which, in data set [2], the binding result is given as “no binding”.

One may read the Kd as the equilibrium constant for the complex coming apart.
